The supplement of paper PMC7877785
± gives the uncertainty stated by the source.

Test: self-splicing fitness, log relative to wild type (ln ratio); higher = more splicing; Tetrahymena group I intron in knt gene, E. coli kanamycin selection, DiMSum; sequences stand for … in CUCUCU…GGAGGGAAAAGUUAUCAGGCAUGCACCUGGUAGCUAGUCUUUAAACCAAUAGAUUGCAUCGGUUUAAAAGGCAAGACCGUCAAAUUGCGGGAAAGGGGUCAACAGCCGUUCAGUACCAAGUCUCAGGGGAAACUUUGAGAUGGCCUUGCAAAGGGUAUGGUAAUAAGCUGACGGACAUGGUCCUAACCACGCAGCCAAGUCCUAAGUCAACAGAUCUUCUGUUGAUAUGGAUGCAGUUCACAGACUAAAUGUCGGUCGGGGAAGAUGUAUUCUUCUCAUAAGAUAUAGUCGGACCUCUCCUUAAUGGGAGCUAGCGGAUGAAGUGAUGCAACACUGGAGCCGCUGGGAACUAAUUUGUAUGCGAAAGUAUAUUGAUUAGUUUUGGAGUACUCGUGGUCG
In short: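 Six replicate transformations of E. coli BL21(DE3) with a pET-22b(+) library were grown overnight at 37°C or 30°C. The library randomised all eight P1ex-region intron nucleotides, the intron lying in the knt kanamycin-resistance gene, and plates were LB agar with or without 25 μg/mL kanamycin plus 100 μg/mL carbenicillin, 50 μM IPTG and 0.2% rhamnose. Pooled colonies were amplicon-sequenced on an Illumina HiSeq 2500, and fitness is the DiMSum error-weighted combination of wild-type-normalised replicate fold changes, kanamycin versus none.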

| Sequence | self-splicing fitness (ln) (30 °C) | self-splicing fitness (ln) (37 °C) |
| --- | --- | --- |
| CUACAGCAAUAUUACGUGUG | -1.63 ± 0.055 | -0.0421 ± 0.061 |
| CUACAGCAAUAUUACGUUAA | -3.48 ± 0.21 | -2.94 ± 0.2 |
| CUACAGCAAUAUUACGUUGG | -3.51 ± 0.15 | -2.45 ± 0.14 |
| CUAGAGCAAUAUUACGAAUA | -3.49 ± 0.48 | -1.86 ± 0.34 |
| CUAGAGCAAUAUUACGAGGC | -3.08 ± 0.26 | -1.02 ± 0.23 |
| CUAGAGCAAUAUUACGAGGG | -2.12 ± 0.19 | -1.73 ± 0.33 |
| CUAGAGCAAUAUUACGAGUU | -3.23 ± 0.31 | -2.36 ± 0.3 |
| CUAGAGCAAUAUUACGAUAC | -2.63 ± 0.35 | -2.25 ± 0.34 |
| CUAGAGCAAUAUUACGAUAG | -0.96 ± 0.1 | 0.0398 ± 0.18 |
| CUAGAGCAAUAUUACGAUCA | -2.35 ± 0.45 |  |
| CUAGAGCAAUAUUACGAUUC | -2.96 ± 0.29 | -2.75 ± 0.48 |
| CUAGAGCAAUAUUACGCAAC | -1.32 ± 0.22 |  |
| CUAGAGCAAUAUUACGCCAA | -0.987 ± 0.2 | -2.54 ± 0.41 |
| CUAGAGCAAUAUUACGCUGU | -3.92 ± 0.37 | -2.69 ± 0.36 |
| CUAGAGCAAUAUUACGGAUA |  | -1.44 ± 0.4 |
| CUAGAGCAAUAUUACGGCCU | -2.72 ± 0.44 | -1.69 ± 0.44 |
| CUAGAGCAAUAUUACGGGCG | 0.0237 ± 0.11 | 0.638 ± 0.14 |
| CUAGAGCAAUAUUACGGGUG | 0.162 ± 0.073 | -0.643 ± 0.082 |
| CUAGAGCAAUAUUACGGGUU | -4.2 ± 0.29 | -2.33 ± 0.23 |
| CUAGAGCAAUAUUACGGUCU |  | -3.69 ± 0.34 |
| CUAGAGCAAUAUUACGUAUU | -3.42 ± 0.17 | -3.03 ± 0.26 |
| CUAGAGCAAUAUUACGUCCG | -0.472 ± 0.087 | -0.0677 ± 0.14 |
| CUAGAGCAAUAUUACGUCUG | 0.15 ± 0.094 | 0.417 ± 0.11 |

| Sequence | self-splicing fitness (ln) (30 °C) | self-splicing fitness (ln) (37 °C) |
| --- | --- | --- |
| CUAUAGCAAUAUUACGAACC | -2.11 ± 0.49 |  |
| CUAUAGCAAUAUUACGACCU | -2.85 ± 0.42 |  |
| CUAUAGCAAUAUUACGACGG | 0.143 ± 0.13 | 0.155 ± 0.15 |
| CUAUAGCAAUAUUACGACUG | 0.0686 ± 0.17 | -0.119 ± 0.17 |
| CUAUAGCAAUAUUACGAUAC |  | -2.61 ± 0.33 |
| CUAUAGCAAUAUUACGAUCA | -3.08 ± 0.33 | 0.388 ± 0.31 |
| CUAUAGCAAUAUUACGCCAG | -1.83 ± 0.18 | -0.622 ± 0.25 |
| CUAUAGCAAUAUUACGCCUU |  | -2.27 ± 0.39 |
| CUAUAGCAAUAUUACGGACG | 0.217 ± 0.093 | 0.437 ± 0.12 |
| CUAUAGCAAUAUUACGGCGU | -4.65 ± 0.46 | -2.24 ± 0.43 |
| CUAUAGCAAUAUUACGGGGA | -2.58 ± 0.17 | -2.87 ± 0.31 |
| CUAUAGCAAUAUUACGGGUA | -2.54 ± 0.19 | -2.34 ± 0.21 |
| CUAUAGCAAUAUUACGGUGG | -3.27 ± 0.24 | -2.22 ± 0.25 |
| CUAUAGCAAUAUUACGUGGU | -3.34 ± 0.23 | -2.76 ± 0.2 |
| CUAUAGCAAUAUUACGUGUC | -4.02 ± 0.24 | -3.09 ± 0.27 |
| CUAUAGCAAUAUUACGUUUA | -3.4 ± 0.36 | -1.74 ± 0.19 |
| CUCAAGCAAUAUUACGAAUC |  | -1.91 ± 0.3 |
| CUCAAGCAAUAUUACGACUA | -2.02 ± 0.31 | -2.64 ± 0.34 |
| CUCAAGCAAUAUUACGAUCG | -1.26 ± 0.1 | -0.0967 ± 0.13 |
| CUCAAGCAAUAUUACGAUGG | -1.28 ± 0.061 | 0.0609 ± 0.08 |
| CUCAAGCAAUAUUACGAUUG | -3.85 ± 0.18 | -2.5 ± 0.17 |
| CUCAAGCAAUAUUACGCAAA | -3.82 ± 0.31 | -2.47 ± 0.25 |
